Article PMC8778164, “Towards Complete Tumor Resection: Novel Dual-Modality Probes for Improved Image-Guided Surgery of GRPR-Expressing Prostate Cancer” (Pharmaceutics, 2022)

Tests used:
GRPR = biological target: T1, GRPR (Homo sapiens, UniProt P30550); assay: Competition binding assay against [111In]In-NeoB on PC-3 cells; conditions: IC50 of compound over IC50 of NeoB
T1 construct: host or cells: PC-3 cells (human prostate adenocarcinoma)
Description: GRPR-positive human-derived prostate adenocarcinoma epithelial PC-3 cells (ATCC, Manassas, VA, USA) were cultured in Ham’s F-12K (Kaighn’s) Medium (Gibco, Paisley, UK) supplemented with 10% fetal bovine serum, penicillin (100 units/mL) and streptomycin (100 µg/mL). Cells were routinely passaged and grown in tissue culture flasks at 37 °C in a humidified atmosphere with 5% CO2.
The affinity of all six probes for GRPR was determined using a competition binding assay. PC-3 cells were seeded in 12-well plates (2.5 × 10^5 cells/well) one day prior to the experiment. The next day, cells were washed with warm Dulbecco’s phosphate-buffered saline (PBS) (Gibco). Subsequently, cells were incubated for 1 h at 37 °C with 0.5 mL incubation medium (Ham’s F-12K, 20 mM HEPES, 1% BSA, pH 7.4) containing 10^−9 M [^111In]In-NeoB, in the presence or absence of increasing concentrations (10^−12 to 10^−6 M) of one of the six unlabeled probes or NeoB (positive control). After incubation, the medium was removed and cells were washed twice with cold PBS. To determine the amount of activity that was taken up by the cells, cells were lysed using 1 M NaOH for > 20 min at rt, then collected and measured in a γ-counter. To determine the amount of radioactivity added per well, samples of the incubation medium containing 10^−9 M [^111In]In-NeoB were also measured. The results are expressed as the percentage of added dose (%AD) and were normalized to the uptake of [^111In]In-NeoB (in the absence of cold compound). Data represent the mean ± standard deviation (SD) of triplicate wells.
Statistical analysis was performed using GraphPad Prism version 5.01 (GraphPad Software Inc., San Diego, CA, USA). The half-maximal inhibitory concentration (IC50) values were estimated by the log (inhibitor) vs. the normalized response fitting routine. To compare the uptake values of the two probes studied in vivo, an unpaired t-test was used with the significance levels set at 5%. The results are represented as mean ± standard deviation (SD).

[1] = Distribution coefficient (LogD7.4), shake-flask method; type: physicochemical; conditions: n-octanol/PBS pH 7.4, n = 3; read-out: Log D7.4
Description: Distribution coefficients (LogD7.4) for the ^111In-labeled compounds were determined by a shake-flask method. The experiments were performed in triplicate for each radioligand. A sample containing the radioligand (0.5–2.0 MBq) was dissolved in 1 mL solution of phosphate-buffered saline (0.01 M, pH 7.4) and n-octanol (v:v = 1:1). The vials were vortexed vigorously and then centrifuged at 10,000 rpm for 3 min, for phase separation. Samples (10 μL) of each phase were taken out and analyzed using a gamma counter. LogD7.4 values were calculated, using the following equation: LogD7.4 = log {(counts in n-octanol phase)/(counts in PBS phase)}.

[2] = Stability in PBS at 37 °C (iTLC); type: physicochemical; conditions: intact labeled ligand after incubation at 37 °C in PBS, n = 1
Description: (§1) Stability in PBS was determined by incubating 20 µL of the labeled compounds (∼11 MBq) in PBS (80 µL) at 37 °C. Radiochemical purity was determined by iTLC at 30 min, 1 h, 2 h and 4 h. Stability in the serum was carried out by adding 70 µL of the labeled compound (∼35 MBq) to 330 µL of mouse serum (Merck, Haarlerbergweg, The Netherlands). The mixture was incubated at 37 °C. At different time points (30 min, 1 h, 2 h and 4 h), an aliquot of the mixture (50 µL) was added to 50 µL ACN. The vial was vortexed and centrifuged at 10,000 rpm for 20 min and the supernatant was analyzed by iTLC.

[3] = Stability in mouse serum at 37 °C (iTLC); type: in vitro ADME; conditions: for Stability in Mouse Serum (%) 30 min / Stability in Mouse Serum (%) 1 h / Stability in Mouse Serum (%) 2 h / Stability in Mouse Serum (%) 4 h: intact labeled ligand after incubation at 37 °C in mouse serum, n = 1
Description: as §1

T1 sequence (P30550 whole entry): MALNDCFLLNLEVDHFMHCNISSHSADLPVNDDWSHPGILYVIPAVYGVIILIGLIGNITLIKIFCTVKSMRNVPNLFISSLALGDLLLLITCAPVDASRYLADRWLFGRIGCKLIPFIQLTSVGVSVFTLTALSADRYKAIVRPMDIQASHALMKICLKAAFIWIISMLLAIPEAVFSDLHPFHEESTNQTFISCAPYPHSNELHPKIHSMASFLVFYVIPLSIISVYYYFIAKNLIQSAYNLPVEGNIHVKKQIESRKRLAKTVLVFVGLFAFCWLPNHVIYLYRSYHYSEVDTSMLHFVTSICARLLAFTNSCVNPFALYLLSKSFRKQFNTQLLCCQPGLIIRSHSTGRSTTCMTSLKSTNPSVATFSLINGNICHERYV

CC(C)CC(CC(C)C)NC(=O)[C@H](Cc1c[nH]cn1)NC(=O)CNC(=O)[C@@H](NC(=O)[C@H](C)NC(=O)[C@H](Cc1c[nH]c2ccccc12)NC(=O)[C@H](CCC(N)=O)NC(=O)[C@@H](Cc1ccccc1)NC(=O)CCOCCOCCOCCOCCNC(=O)[C@H](CCCCNC(=O)CCOCCOCCOCCOCCNC(=O)OC1CCCC2C=NN=C(c3ccc(CNC(=O)CCCCC[N+]4=C(/C=C/C=C/C=C5N(C)c6ccc(S(=O)(=O)O)cc6C5(C)C)C(C)(C)c5cc(S(=O)(=O)[O-])ccc54)cc3)C2CC1)NC(=O)CN1CCN(CC(=O)O)CCN(CC(=O)O)CCN(CC(=O)O)CC1)C(C)C (some centres unmarked) [Compound 13]
Ratio Compound/NeoB (IC50) (GRPR): 18.2

CC(C)CC(CC(C)C)NC(=O)[C@H](Cc1c[nH]cn1)NC(=O)CNC(=O)[C@@H](NC(=O)[C@H](C)NC(=O)[C@H](Cc1c[nH]c2ccccc12)NC(=O)[C@H](CCC(N)=O)NC(=O)[C@@H](Cc1ccccc1)NC(=O)COCC(=O)Nc1ccc(CNC(=O)[C@H](CCCCNC(=O)OC2CCCC3C=NN=C(c4ccc(CNC(=O)CCCCC[N+]5=C(/C=C/C=C/C=C6N(C)c7ccc(S(=O)(=O)O)cc7C6(C)C)C(C)(C)c6cc(S(=O)(=O)[O-])ccc65)cc4)C3CC2)NC(=O)CN2CCN(CC(=O)O)CCN(CC(=O)O)CCN(CC(=O)O)CC2)cc1)C(C)C (some centres unmarked) [Compound 14]
Ratio Compound/NeoB (IC50) (GRPR): 24.6

CC(C)CC(CC(C)C)NC(=O)[C@H](Cc1c[nH]cn1)NC(=O)CNC(=O)[C@@H](NC(=O)[C@H](C)NC(=O)[C@H](Cc1c[nH]c2ccccc12)NC(=O)[C@H](CCC(N)=O)NC(=O)[C@@H](Cc1ccccc1)NC(=O)COCC(=O)Nc1ccc(CNC(=O)[C@H](CCCCNC(=O)CCOCCOCCOCCOCCNC(=O)OC2CCCC3C=NN=C(c4ccc(CNC(=O)CCCCC[N+]5=C(/C=C/C=C/C=C6N(C)c7ccc(S(=O)(=O)O)cc7C6(C)C)C(C)(C)c6cc(S(=O)(=O)[O-])ccc65)cc4)C3CC2)NC(=O)CN2CCN(CC(=O)O)CCN(CC(=O)O)CCN(CC(=O)O)CC2)cc1)C(C)C (some centres unmarked) [Compound 12]
Ratio Compound/NeoB (IC50) (GRPR): 9.1

CC(C)CC(CC(C)C)NC(=O)[C@H](Cc1c[nH]cn1)NC(=O)CNC(=O)[C@@H](NC(=O)[C@H](C)NC(=O)[C@H](Cc1c[nH]c2ccccc12)NC(=O)[C@H](CCC(N)=O)NC(=O)[C@@H](Cc1ccccc1)NC(=O)CCOCCOCCOCCOCCNC(=O)[C@H](CCCCNC(=O)OC1CCCC2C=NN=C(c3ccc(CNC(=O)CCCCC[N+]4=C(/C=C/C=C/C=C5N(C)c6ccc(S(=O)(=O)O)cc6C5(C)C)C(C)(C)c5cc(S(=O)(=O)[O-])ccc54)cc3)C2CC1)NC(=O)CN1CCN(CC(=O)O)CCN(CC(=O)O)CCN(CC(=O)O)CC1)C(C)C (some centres unmarked) [Compound 15]
Ratio Compound/NeoB (IC50) (GRPR): 11.2

CC(C)CC(CC(C)C)NC(=O)[C@H](Cc1c[nH]cn1)NC(=O)CNC(=O)[C@@H](NC(=O)[C@H](C)NC(=O)[C@H](Cc1c[nH]c2ccccc12)NC(=O)[C@H](CCC(N)=O)NC(=O)[C@@H](Cc1ccccc1)NC(=O)CCOCCOCCOCCOCCNC(=O)OC1CCCC2C=NN=C(c3ccc(CNC(=O)CCCCC[N+]4=C(/C=C/C=C/C=C5N(C)c6ccc(S(=O)(=O)O)cc6C5(C)C)C(C)(C)c5cc(S(=O)(=O)[O-])ccc54)cc3)C2CC1)C(C)C (some centres unmarked) [Compound 11]
Ratio Compound/NeoB (IC50) (GRPR): 4.5

CC(C)CC(CC(C)C)NC(=O)[C@H](Cc1c[nH]cn1)NC(=O)CNC(=O)[C@@H](NC(=O)[C@H](C)NC(=O)[C@H](Cc1c[nH]c2ccccc12)NC(=O)[C@H](CCC(N)=O)NC(=O)[C@@H](Cc1ccccc1)NC(=O)COCC(=O)Nc1ccc(CNC(=O)OC2CCCC3C=NN=C(c4ccc(CNC(=O)CCCCC[N+]5=C(/C=C/C=C/C=C6N(C)c7ccc(S(=O)(=O)O)cc7C6(C)C)C(C)(C)c6cc(S(=O)(=O)[O-])ccc65)cc4)C3CC2)cc1)C(C)C (some centres unmarked) [Compound 10]
Ratio Compound/NeoB (IC50) (GRPR): 12.9

CC(C)CC(CC(C)C)NC(=O)[C@H](Cc1c[nH]cn1)NC(=O)CNC(=O)[C@@H](NC(=O)[C@H](C)NC(=O)[C@H](Cc1c[nH]c2ccccc12)NC(=O)[C@H](CCC(N)=O)NC(=O)[C@@H](Cc1ccccc1)NC(=O)CCOCCOCCOCCOCCNC(=O)[C@H](CCCCNC(=O)CCOCCOCCOCCOCCNC(=O)OC1CCCC2C=NN=C(c3ccc(CNC(=O)CCCCC[N+]4=C(/C=C/C=C/C=C5N(C)c6ccc(S(=O)(=O)O)cc6C5(C)C)C(C)(C)c5cc(S(=O)(=O)[O-])ccc54)cc3)C2CC1)NC(=O)CN1CCN(CC(=O)O)CCN(CC(=O)O)CCN(CC(=O)O)CC1)C(C)C (some centres unmarked) [[^111In]In-13, metal not drawn]
logD [1]: -1.8 ± 0.01 | Stability in PBS (%) 30 min [2]: 87.4% | Stability in PBS (%) 1 h [2]: 87.5% | Stability in PBS (%) 2 h [2]: 86.2% | Stability in PBS (%) 4 h [2]: 84.4% | Stability in Mouse Serum (%) 30 min [3]: 98.1% | Stability in Mouse Serum (%) 1 h [3]: 97.9% | Stability in Mouse Serum (%) 2 h [3]: 97.6% | Stability in Mouse Serum (%) 4 h ([3]; 4 h): 97.3% | Protein-Bound Fraction at 4 h (%) ([3]; mouse serum, 4 h): 5.6%

CC(C)CC(CC(C)C)NC(=O)[C@H](Cc1c[nH]cn1)NC(=O)CNC(=O)[C@@H](NC(=O)[C@H](C)NC(=O)[C@H](Cc1c[nH]c2ccccc12)NC(=O)[C@H](CCC(N)=O)NC(=O)[C@@H](Cc1ccccc1)NC(=O)COCC(=O)Nc1ccc(CNC(=O)[C@H](CCCCNC(=O)OC2CCCC3C=NN=C(c4ccc(CNC(=O)CCCCC[N+]5=C(/C=C/C=C/C=C6N(C)c7ccc(S(=O)(=O)O)cc7C6(C)C)C(C)(C)c6cc(S(=O)(=O)[O-])ccc65)cc4)C3CC2)NC(=O)CN2CCN(CC(=O)O)CCN(CC(=O)O)CCN(CC(=O)O)CC2)cc1)C(C)C (some centres unmarked) [[^111In]In-14, metal not drawn]
logD [1]: -1.52 ± 0.1 | Stability in PBS (%) 30 min [2]: 74.2% | Stability in PBS (%) 1 h [2]: 48.5% | Stability in PBS (%) 2 h [2]: 30.9% | Stability in PBS (%) 4 h [2]: 33.7% | Stability in Mouse Serum (%) 30 min [3]: 94.6% | Stability in Mouse Serum (%) 1 h [3]: 94.1% | Stability in Mouse Serum (%) 2 h [3]: 94.0% | Stability in Mouse Serum (%) 4 h ([3]; 4 h): 94.1% | fraction unbound at 4 h ([3]; mouse serum, 4 h, read-out: Protein-Bound Fraction at 4 h (%) (converted)): 0.929
